Residue numbers refer to the chain shown, from its start. Numbers in names are those of the source.

B1: XENP31697 (bispecific antibody)
heavy: QVQLVQSGAEVKKPGASVKVSCKASGYTFTSYWMHWVRQAPGQGLEWMGMIHPNSDNTIYYEKFQGRVTMTVDKSISTAYMELSRLRSDDTAVYYCAIIITPVVPKFDYWGQGTLVTVSSASTKGPSVFPLAPSSKSTSGGTAALGCLVKDYFPEPVTVSWNSGALTSGVHTFPAVLQSSGLYSLSSVVTVPSSSLGTQTYICNVNHKPSDTKVDKKVEPKSCDKTHTCPPCPAPPVAGPSVFLFPPKPKDTLMISRTPEVTCVVVDVKHEDPEVKFNWYVDGVEVHNAKTKPREEEYNSTYRVVSVLTVLHQDWLNGKEYKCKVSNKALPAPIEKTISKAKGQPREPQVYTLPPSREEMTKNQVSLTCDVSGFYPSDIAVEWESDGQPENNYKTTPPVLDSDGSFFLYSKLTVDKSRWEQGDVFSCSVMHEALHNHYTQKSLSLSPGK
scFv-Fc: not shown
light: DIVMTQSPDSLAVSLGERATINCKASHDVGTSVAWYQQKPGQSPKLLIYWASTRHTGVPDRFTGSGSGTDFTLTISSLQAEDVAVYFCQQYSSYPLTFGAGTKLEIKRTVAAPSVFIFPPSDEQLKSGTASVVCLLNNFYPREAKVQWKVDNALQSGNSQESVTEQDSKDSTYSLSSTLTLSKADYEKHKVYACEVTHQGLSSPVTKSFNRGEC
notes: 1+1 Fab-scFv-Fc anti-MSLN x anti-CD3
B2: XENP31717 (bispecific antibody)
heavy 1: B1 heavy
heavy 2: QVQLVQSGAEVKKPGASVKVSCKASGYTFTSYWMHWVRQAPGQGLEWMGMIHPNSDNTIYYEKFQGRVTMTVDKSISTAYMELSRLRSDDTAVYYCAIIITPVVPKFDYWGQGTLVTVSSASTKGPSVFPLAPSSKSTSGGTAALGCLVKDYFPEPVTVSWNSGALTSGVHTFPAVLQSSGLYSLSSVVTVPSSSLGTQTYICNVNHKPSNTKVDKKVEPKSCGGGGSGGGGSQAVVTQEPSLTVSPGGTVTLTCGSSTGAVTTSNYANWVQQKPGKSPRGLIGGTNKRAPGVPARFSGSLLGGKAALTISGAQPEDEADYYCALWYSNHWVFGGGTKLTVLGKPGSGKPGSGKPGSGKPGSEVQLVESGGGLVQPGGSLRLSCAASGFTFSTYAMNWVRQAPGKGLEWVGRIRSKANNYATYYADSVKGRFTISRDDSKNTLYLQMNSLRAEDTAVYYCVRHGNFGDSYVSWFAYWGQGTLVTVSSGGGGSGGGGSKTHTCPPCPAPPVAGPSVFLFPPKPKDTLMISRTPEVTCVVVDVKHEDPEVKFNWYVDGVEVHNAKTKPREEQYNSTYRVVSVLTVLHQDWLNGKEYKCKVSNKALPAPIEKTISKAKGQPREPQVYTLPPSREQMTKNQVKLTCLVKGFYPSDIAVEWESNGQPENNYKTTPPVLDSDGSFFLYSKLTVDKSRWQQGNVFSCSVMHEALHNHYTQKSLSLSPGK
light: B1 light
notes: 2+1 Fab2-scFv-Fc anti-MSLN x anti-CD3
B3: XENP32745 (bispecific antibody)
heavy 1: B1 heavy
heavy 2: B2 heavy 2
light: B1 light with D28S
notes: 2+1 Fab2-scFv-Fc
B4: XENP32947 (bispecific antibody)
heavy 1: B1 heavy with M50W
heavy 2: B2 heavy 2 with M50W
light: B1 light
notes: 2+1 Fab2-scFv-Fc; copies: 1 + 1 + 2
B5: XENP32563 (bispecific antibody)
heavy: B1 heavy
scFv-Fc: not shown
light: B1 light with S32Y
notes: 1+1 Fab-scFv-Fc
B6: XENP32937 (bispecific antibody)
heavy: B1 heavy with E62Q
scFv-Fc: not shown
light: B1 light with S92Y
notes: 1+1 Fab-scFv-Fc
B7: XENP32948 (bispecific antibody)
heavy: B1 heavy with E62Q
Fab-scFv-Fc: B2 heavy 2 with E62Q
light: B1 light with S92Y
notes: 2+1 Fab2-scFv-Fc
B8: XENP32570 (bispecific antibody)
heavy: B1 heavy with D56G
scFv-Fc: not shown
light: B1 light with D28S
notes: VH D55G, VL D28S (Kabat); also called MESO-C H1.6_L1.3; copies: 1 + 1 + 1
B9: XENP32569 (bispecific antibody)
heavy: B1 heavy with N54Q
scFv-Fc: not shown
light: B1 light with D28S
notes: VH N53Q, VL D28S (Kabat); also called MESO-C H1.5_L1.3; copies: 1 + 1 + 1
B10: XENP32566 (bispecific antibody)
Fab-Fc heavy chain (anti-MSLN VH): B1 heavy
scFv-Fc heavy chain (anti-CD3 H1.30_L1.47): not shown
light chain (anti-MSLN VL): B1 light with T56S
notes: 1+1 Fab-scFv-Fc bsAb; VH WT, VL T56S (Kabat); also called MESO-C H1_L1.8
B11: XENP32568 (bispecific antibody)
Fab-Fc heavy chain (anti-MSLN VH): B1 heavy
scFv-Fc heavy chain (anti-CD3 H1.30_L1.47): not shown
light chain (anti-MSLN VL): B1 light with Y94T
notes: 1+1 Fab-scFv-Fc bsAb; VH WT, VL Y94T (Kabat); also called MESO-C H1_L1.10
B12: XENP32938 (bispecific antibody)
heavy: B1 heavy with E62Y
scFv-Fc: not shown
light: B1 light with S92Y
notes: VH E61Y, VL S92Y as printed; also called MESO-C H1.13_L1.9; copies: 1 + 1 + 1
B13: XENP32939 (bispecific antibody)
heavy: B1 heavy with M50W
scFv-Fc: not shown
light: B1 light with T31Q
notes: VH M50W, VL T37Q as printed; also called MESO-C H1.3_L1.13; copies: 1 + 1 + 1
B14: XENP32943 (bispecific antibody)
heavy: B1 heavy with M50W
scFv-Fc: not shown
light: B1 light with Y94I
notes: VH M50W, VL Y94I as printed; also called MESO-C H1.3_L1.17; copies: 1 + 1 + 1
B15: XENP32940 (bispecific antibody)
heavy: B1 heavy with M50W
scFv-Fc: not shown
light: B1 light with Y94F
notes: VH M50W, VL Y100F as printed; also called MESO-C H1.3_L1.14; copies: 1 + 1 + 1

T1 sequence (Q13421 other isoform, or with tags, fused parts or gaps limits assumed): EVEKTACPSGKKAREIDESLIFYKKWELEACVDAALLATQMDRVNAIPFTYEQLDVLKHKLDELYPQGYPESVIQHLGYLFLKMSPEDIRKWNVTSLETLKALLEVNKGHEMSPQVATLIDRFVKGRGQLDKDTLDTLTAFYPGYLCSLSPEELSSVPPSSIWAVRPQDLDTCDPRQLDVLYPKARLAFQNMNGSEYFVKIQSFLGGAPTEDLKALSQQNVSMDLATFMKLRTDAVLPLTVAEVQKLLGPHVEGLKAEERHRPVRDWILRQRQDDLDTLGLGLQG

The first experiment has as its target T1, human MSLN antigen (human, UniProt Q13421 296-580, limits assumed).
T1 construct: Soluble antigen for BLI; also called Mesothelin; MESO
Description: Octet BLI on human MSLN antigen (Example 2B(a)); KD quoted in the FIG. 35 legend. The text has this:
(§1) Variants of MESO-C were engineered by introducing point substitutions into the variable heavy region (VH) and the variable light region (VL) to generate 11 VH variants and 16 VL variants (sequences for which are depicted in FIG. 18 as H1.1-H1.13 and in FIG. 19 as L1.1-L1.18). An additional 4 VL variants were generated by combining useful point substitutions (sequences for which are depicted in FIG. 19 as L1.19-L1.22). WT and variant variable heavy regions were paired with WT and variant variable light regions to generate variant variable regions (Fvs) which were produced in the context of anti-MSLN×anti-CD3 bispecific antibodies. The bispecific antibodies were screened for MSLN binding affinity using Octet®, a BioLayer Interferometry (BLI)-based method. Experimental steps for Octet® generally include the following: Immobilization (capture of ligand to a biosensor); Association (dipping of ligand-coated biosensors into wells containing the analyte); and Dissociation (returning of biosensors to well containing buffer). In an initial screening, anti-human Fc sensors were used to capture the bispecific mAbs and dipped into human MSLN antigen (one concentration to screen large library). The resulting dissociation constant of illustrative variants (KD), association rate (kₐ), dissociation rate (kd), as well as sensorgram response are depicted in FIG. 20. In further screening of favorite variants identified in the initial screen (and combination variants), bispecific mAbs were dipped into multiple concentrations of human MSLN antigen, data for which are depicted in FIG. 21 (from various screens).
For orientation: In BLI a coated tip is dipped into the sample, and binding shifts an interference pattern.
Usually Kd stands for the equilibrium constant for the complex coming apart. Consider B1, for which the Kd turned out to be 0.28 nM.

For B2, the Kd was 0.28 nM.

With B3, the Kd turned out to be 0.45 nM.

With B4, the Kd amounted to 9.2 nM.

With B5, the Kd is roughly 12.8 nM.

Turning to B6, the Kd was 10.2 nM.

Take B7: the Kd came out at 10.2 nM.

For another experiment, the target named is T2, cyno MSLN (Macaca fascicularis (cynomolgus)).
T2 construct: soluble antigen for Octet; also called cynomolgus MSLN
Put plainly: Octet BLI; bsAb on anti-human Fc sensor, cyno MSLN as analyte, one concentration.
One may read the koff as a measure of how fast the partners let go of each other. What is called kon is the second-order rate constant of association. The molecule B8 gave a Kd of 0.155 nM, a Response of 0.95, a koff of 0.000105 s⁻¹ and a kon of 676000 M⁻¹ s⁻¹.

As for B5, the affinity, expressed as Kd, was 13.1 nM; the Response came to 0.817; the koff was determined as 0.00713 s⁻¹; the kon is 543000 M⁻¹ s⁻¹.

On to B9, for which the Kd was 0.189 nM, the Response is 0.867, the koff is 0.000125 s⁻¹ and the kon was 660000 M⁻¹ s⁻¹.

Molecule B10 yielded a Kd of 0.163 nM, a Response of 0.941, a koff of 0.0001 s⁻¹ and a kon of 616000 M⁻¹ s⁻¹.

As to B11, the Response was 0.0728.

For a further experiment, the target named is T3, MSLN on OVCAR8 (MSLN^high) and other cancer cell lines (UniProt Q13421 296-598).
T3 construct: whole, on cells; Endogenous surface MSLN; also called MSLN^high OVCAR8 cells; MSLN^low SKOV3 and HT29 cells
T3 sequence (Q13421 other isoform, or with tags, fused parts or gaps limits assumed): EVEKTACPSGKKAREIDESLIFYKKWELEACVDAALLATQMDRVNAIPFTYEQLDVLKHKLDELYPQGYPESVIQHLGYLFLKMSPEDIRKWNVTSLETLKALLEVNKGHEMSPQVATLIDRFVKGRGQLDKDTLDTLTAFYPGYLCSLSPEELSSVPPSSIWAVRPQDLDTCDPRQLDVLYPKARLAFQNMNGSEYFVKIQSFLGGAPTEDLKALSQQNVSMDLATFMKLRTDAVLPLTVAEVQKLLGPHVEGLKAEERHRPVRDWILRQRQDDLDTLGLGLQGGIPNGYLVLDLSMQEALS
Put plainly: flow cytometry on OVCAR8 cells, detected with A647-labelled anti-human Fc mAb. As to the method: Next, the effect of MSLN binding affinity was investigated. 100,000 OVCAR8 (MSLN^high) cells were treated with the indicated concentrations of the indicated test articles. […] Further, XENP32852 and XENP32853 which differ only in CD3 binding affinity have identical binding to OVCAR8 cells confirming that avid binding is due to the MSLN binding domain.
On the technique in general: A flow cytometer gives signals particle by particle.
One may read the EC50 (read off the curve) as the midpoint of the concentration-response curve. With B1, the “EC50 (read off the curve)” value is roughly 0.07 µg/mL.

Take B2: the “EC50 (read off the curve)” value was roughly 0.04 µg/mL.

In the case of B3, the “EC50 (read off the curve)” value was roughly 0.05 µg/mL.

A further experiment concerns the target T1, human MSLN antigen. Put plainly: Octet BLI; bsAb on anti-human Fc sensor, human MSLN as analyte, one concentration. Further details: Response: unit not given here.
Description: as §1
Regarding B8, the Kd came to 0.103 nM, the Response was found to be 0.981, the koff came out at 7.35e-05 s⁻¹ and the kon amounted to 717000 M⁻¹ s⁻¹.

As for B5, the Response was 0.898, the koff was 0.00672 s⁻¹ and the kon turned out to be 527000 M⁻¹ s⁻¹.

Take B9: the Kd is 0.135 nM, the Response was 0.978, the koff is 9.35e-05 s⁻¹ and the kon was 693000 M⁻¹ s⁻¹.

On to B10, for which the Kd stood at 0.18 nM, the Response is 1.05, the koff was found to be 0.000113 s⁻¹ and the kon turned out to be 627000 M⁻¹ s⁻¹.

For the molecule B11, the Response came to 0.107.

Another experiment has as its target T1, human MSLN antigen. Put plainly: Octet BLI; bsAb on anti-human Fc sensor, human MSLN as analyte, several concentrations.
Description: as §1
As for B12, the Kd amounted to 16.2 nM, the Response stood at 0.169, the koff is 0.0103 s⁻¹ and the kon was 635000 M⁻¹ s⁻¹.

On to B13, for which the Kd was 90.4 nM, the Response was 0.202, the koff was 0.0383 s⁻¹ and the kon was determined as 424000 M⁻¹ s⁻¹.

Turning to B14, the Response stood at 0.0022 and the binding result was “no binding”.

Take B6: the Response was determined as 0.183, the koff is 0.00822 s⁻¹ and the kon came out at 803000 M⁻¹ s⁻¹.

As to B15, the Kd was 246 nM, the Response was 0.136, the koff is 0.0816 s⁻¹ and the kon was found to be 332000 M⁻¹ s⁻¹.

Source of the values: patent US20240279356A1 (Xencor, published 2024).
